Measured values taken from patent US20220324978A1 (BIOCYTOGEN PHARMACEUTICALS BEIJING, published 2022).

Legend:
[1] = molecular target: T1, feline PD-1 (on transfected CHO cells) (feline); assay: flow cytometry (MFI) on CHO cells with feline PD-1 and EGFP
T1 construct: Expressed from a vector that also expresses EGFP; also called cPD-1
T1 chain: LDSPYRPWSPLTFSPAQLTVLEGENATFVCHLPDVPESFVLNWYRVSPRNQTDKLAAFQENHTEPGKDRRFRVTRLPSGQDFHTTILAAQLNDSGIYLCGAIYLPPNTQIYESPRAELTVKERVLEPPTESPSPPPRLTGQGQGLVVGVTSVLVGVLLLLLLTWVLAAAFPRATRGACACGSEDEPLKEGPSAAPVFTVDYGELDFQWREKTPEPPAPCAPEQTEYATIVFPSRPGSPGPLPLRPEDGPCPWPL
Protocol: In FIG. 9, the CHO cells were transfected with an expression vector that expresses feline PD-1 and EGFP. 25 μl purified anti-dPD-1 chimeric antibodies with different concentrations were added to each well. After being washed with PBS (1200 rmp, 5 min) twice, 50 μl of Alexa Fluor 647 labeled anti-dog IgG Fc antibody (anti-dIgG Fc-647) was added into each well at 1:500 dilution, followed by incubating at 4° C. for 30 minutes, and then PBS wash (1200 rmp, 5 min). 30 μl of PBS was then added. […] EC50 were also determined from the data.

[2] = molecular target: T2, canine PD-1 (on transfected CHO cells) (canine); assay: flow cytometry blocking assay on CHO cells transiently transfected with canine PD-1; antibody at 5 µg/mL; blocked ligand biotin-labeled dPD-L1 (5 µg/ml), detected with Streptavidin-PE
T2 construct: also called dPD-1
T2 chain: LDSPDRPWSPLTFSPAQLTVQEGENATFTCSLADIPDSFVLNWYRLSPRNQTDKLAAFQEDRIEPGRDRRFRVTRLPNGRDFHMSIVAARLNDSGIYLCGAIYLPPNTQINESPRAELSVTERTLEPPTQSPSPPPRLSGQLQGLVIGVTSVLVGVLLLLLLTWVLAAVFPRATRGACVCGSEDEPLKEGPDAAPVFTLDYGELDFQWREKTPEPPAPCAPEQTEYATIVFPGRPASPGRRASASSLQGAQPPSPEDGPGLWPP
Protocol: (§1) The anti-dPD-1 chimeric antibodies were collected from mouse ascites fluid and purified by chromatography. 25 μl CHO cells transiently transfected with canine PD-1 were added to each well in a plate. The purified antibodies were titrated to the desired final concentrations, and were added to each well at 25 μl per well at 4° C. and incubated for 30 minutes.
(§2) After being washed with phosphate-buffered saline (PBS) twice (1200 rpm, 5 minutes), 50 μl of PE-labeled Streptavidin (Streptavidin-PE) at 1:100 dilution was added into each well, and incubated for 30 minutes at 4° C., followed by PBS wash (1200 rpm, 5 minutes). 20 μl of PBS was added. The signals for PE was detected by flow cytometry (Intellicyt).

[3] = molecular target: T2, canine PD-1 (on transfected CHO cells); assay: flow cytometry (MFI) on CHO cells with canine PD-1
Protocol: 25 μl CHO cells were added to each well.
30 μl of PBS was then added.

[4] = molecular target: T2, canine PD-1 (on transfected CHO cells); assay: flow cytometry blocking assay on CHO cells transiently transfected with canine PD-1; antibody at 0.5 µg/mL; blocked ligand biotin-labeled dPD-L1 (5 µg/ml), detected with Streptavidin-PE
Protocol: as §1, §2

[5] = molecular target: T2, canine PD-1 (on transfected CHO cells); assay: flow cytometry blocking assay on CHO cells transiently transfected with canine PD-1; antibody at 0.005 µg/mL; blocked ligand biotin-labeled dPD-L1 (5 µg/ml), detected with Streptavidin-PE
Protocol: as §1, §2

[6] = molecular target: T2, canine PD-1 (on transfected CHO cells); assay: flow cytometry blocking assay on CHO cells transiently transfected with canine PD-1; antibody at 0.05 µg/mL; blocked ligand biotin-labeled dPD-L1 (5 µg/ml), detected with Streptavidin-PE
Protocol: as §1, §2

[7] = molecular target: T3, human PD-1 (on transfected CHO cells) (human, UniProt Q15116 25-288); assay: flow cytometry on CHO-hPD-1 cells; Anti-dog-IgG Fc-FITC (1:100)
T3 construct: also called hPD-1
T3 sequence (Q15116 25-288 limits assumed): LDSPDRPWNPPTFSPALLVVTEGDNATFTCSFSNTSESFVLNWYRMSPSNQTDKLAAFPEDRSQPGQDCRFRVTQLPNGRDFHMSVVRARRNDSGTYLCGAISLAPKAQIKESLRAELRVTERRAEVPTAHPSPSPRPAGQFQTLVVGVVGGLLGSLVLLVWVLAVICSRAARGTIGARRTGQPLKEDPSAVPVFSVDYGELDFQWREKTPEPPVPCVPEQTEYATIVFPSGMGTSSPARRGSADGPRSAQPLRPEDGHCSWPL
Protocol: After being washed with PBS (1200 rmp, 5 min) twice, FITC labeled anti-dog IgG Fc antibody (anti-dIgG Fc-FITC) was added into each well 1:100 dilution, followed by incubating at 4° C. for 30 minutes, and then PBS wash (1200 rmp, 5 min). The signals for FITC were determined by flow cytometry.

Binder | EC50 [1] | percent of cells in the dPD-L1-positive (PE) gate [2] | EC50 [3] | percent of cells in the dPD-L1-positive (PE) gate [4] | percent of cells in the dPD-L1-positive (PE) gate [5] | percent of cells in the dPD-L1-positive (PE) gate [6] | binding result [7]
4A7-mHvKv-dIgG4 (antibody, V domains shown, also called 4A7-mHvKv-IgG4; 4A7-mHvKv-dlgG4) VH: EVQLVESGGDLVKPGGSLKLSCVASGFPFSNFGMSWVRQTPDKRLEWVATISSGSSYSYYSDSVKGRFTISRDNAKNTLFLQMNSLKSEDTAIFYCARGESRFAYWGQGTLVTVSA VL: DVVITQDELSNPVTSGESVSISCRSNKSLLYEDGQTYLNWFLQRPGQSPQLLIYLMSTRASGVSDRFSGSGSGTDFTLEISEVRAEDVGVYYCQQLIEYPLTFGAGTKLELKR | 1.53 nM | 3.37% | 4.81 nM | 1.7% | 34.1% | 27.1% | –
1D8-mHvKv-dIgG4 (antibody, V domains shown, also called 1D8-mHvKv-IgG4; 1D8-mHvKv-dlgG4) VH: EVQLVESGGDLVKPGGSLKLSCAASGFTFNNFGMSWVRQNPDKRLEWVATLSSGSSYTYYSDSVKGRFTISRDNAKNTLYLQMNSLKSEDTAMYYCTRGESRFAYWGQGTLVTVSA VL: GVVITQDELSNPVTSGESVSISCRSSKSLLYKDGKTYLNWFLQRPGQSPQLLIYLMSTRASGVSDRFSGSGSGTDFTLEISRVKAEDVGVYYCQQLIEYPLTFGAGTKLELKR | 7.29 nM | 4.38% | – | 0.161% | 39.2% | 18.8% | no binding (tested: 10 µg/ml)
1B9-mHvKv-dIgG4 (antibody, V domains shown, also called 1B9-mHvKv-IgG4; 1B9-mHvKv-dlgG4) VH: QVQLQQPGAELVRPGASVKLSCKASGYTFTSFWMNWVKLRPEQGLEWIGRVDPYDSETHYNQKFKDKAILTVDKSSSTAYMQLSSLTSEDSAVYYCATQFGFSWLAYWGQGTLVTVSA VL: not shown | – | 0.504% | – | 4.4% | 45.1% | 47% | –
